Data published in article PMC6189472.

Experiments:
[1] = target: TCR/CD3 complex (human (endogenous in Jurkat)) (UniProt P07766); assay: FRAP on micropatterned antibody spots; CD6-GFP Jurkat T cells on spots of 100, 10 or 1% anti-CD3 surrounded by fibronectin; 37 C; circular ROI of 2.1 um on spots and on surrounding fibronectin; single exponential fit
[2] = target: TCR/CD3 complex (human (endogenous in Jurkat)) (UniProt P07766); assay: recruitment to antibody-coated beads (confocal microscopy); CD6-GFP Jurkat T cells on fibronectin-coated coverslips with 4.5 um anti-CD3-coated (Dynal CD3) or fibronectin-coated beads; live cells at RT; CD6-GFP intensity at bead contact against the opposite side of the cell

UniProt P07766, sequence (P07766 whole entry, looked up, one chain of several): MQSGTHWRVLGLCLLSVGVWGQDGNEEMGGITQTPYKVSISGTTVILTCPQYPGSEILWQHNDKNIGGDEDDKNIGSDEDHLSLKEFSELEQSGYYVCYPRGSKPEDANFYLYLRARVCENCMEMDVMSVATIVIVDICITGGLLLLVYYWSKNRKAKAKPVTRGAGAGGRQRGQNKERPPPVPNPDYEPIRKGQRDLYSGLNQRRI

fraction of CD6-GFP immobilized on 10 and 100% αCD3 spots [1]: 30%
fold enrichment at αCD3-coated beads against fibronectin-coated beads [2]: 3 fold
B1: CD6-GFP (receptor)
chain: HPSPAPPDQLNTSSAESELWEPGERLPVRLTNGSSSCSGTVEVRLEASWEPACGALWDSRAAEAVCRALGCGGAEAASQLAPPTPELPPPPAAGNTSVAANATLAGAPALLCSGAEWRLCEVVEHACRSDGRRARVTCAENRALRLVDGGGACAGRVEMLEHGEWGSVCDDTWDLEDAHVVCRQLGCGWAVQALPGLHFTPGRGPIHRDQVNCSGAEAYLWDCPGLPGQHYCGHKEDAGAVCSEHQSWRLTGGADRCEGQVEVHFRGVWNTVCDSEWYPSEAKVLCQSLGCGTAVERPKGLPHSLSGRMYYSCNGEELTLSNCSWRFNNSNLCSQSLAARVLCSASRSLHNLSTPEVPASVQTVTIESSVTVKIENKESRELMLLIPSIVLGILLLGSLIFIAFILLRIKGKYALPVMVNHQHLPTTIPAGSNSYQPVPITIPKEVFMLPIQVQAPPPEDSDSGSDSDYEHYDFSAQPPVALTTFYNSQRHRVTDEEVQQSRFQMPPLEEGLEELHASHIPTANPGHCITDPPSLGPQYHPRSNSESSTSSGEDYCNSPKSKLPPWNPQVFSSERSSFLEQPPNLELAGTQPAFSAGPPADDSSSTSSGEWYQNFQPPPQPPSEEQFGCPGSPSPQPDSTDNDDYDDISAA
